Experimental data taken from patent US8551717B2, “Method for determining sumoylation” (Medizinische Hochschule Hannover, priority 2008, dated 2013).
One block for each molecule: values may come before it.

How the values were obtained:
Format in all cases: cell-based
U-MK2 = molecular target: T1, U-MK2 (Homo sapiens, UniProt P49137+P63279); experiment: Trans-SUMOylation by U-MK2; details: protein 2 construct coexpressed with U-MK2 and EGFP-SUMO1 in HEK293; western blot; Table 2
T1 construct: expressed in transfected cells; host or cells: HEK293
T1 sequence (P63279+P49137 fused): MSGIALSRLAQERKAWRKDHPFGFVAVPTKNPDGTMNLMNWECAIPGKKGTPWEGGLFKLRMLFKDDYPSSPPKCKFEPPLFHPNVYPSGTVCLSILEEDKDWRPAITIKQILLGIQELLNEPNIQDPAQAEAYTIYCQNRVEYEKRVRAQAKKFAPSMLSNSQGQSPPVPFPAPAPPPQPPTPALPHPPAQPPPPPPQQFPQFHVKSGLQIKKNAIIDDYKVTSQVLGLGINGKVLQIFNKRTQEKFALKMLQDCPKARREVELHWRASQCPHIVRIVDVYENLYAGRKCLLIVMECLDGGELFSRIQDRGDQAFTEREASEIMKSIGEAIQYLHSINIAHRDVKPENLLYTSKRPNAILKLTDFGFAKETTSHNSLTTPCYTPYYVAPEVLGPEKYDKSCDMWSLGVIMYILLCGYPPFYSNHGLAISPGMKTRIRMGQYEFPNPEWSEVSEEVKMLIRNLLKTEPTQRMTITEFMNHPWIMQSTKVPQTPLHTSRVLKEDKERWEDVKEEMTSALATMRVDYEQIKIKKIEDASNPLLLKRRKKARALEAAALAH

ERK2-U = molecular target: T2, ERK2-U (Homo sapiens, UniProt P28482+P63279); experiment: Trans-SUMOylation by ERK2-U; details: protein 2 construct coexpressed with ERK2-U and EGFP-SUMO1 in HEK293; western blot; Table 2
T2 construct: expressed in transfected cells; host or cells: HEK293
T2 sequence (P28482+P63279 fused): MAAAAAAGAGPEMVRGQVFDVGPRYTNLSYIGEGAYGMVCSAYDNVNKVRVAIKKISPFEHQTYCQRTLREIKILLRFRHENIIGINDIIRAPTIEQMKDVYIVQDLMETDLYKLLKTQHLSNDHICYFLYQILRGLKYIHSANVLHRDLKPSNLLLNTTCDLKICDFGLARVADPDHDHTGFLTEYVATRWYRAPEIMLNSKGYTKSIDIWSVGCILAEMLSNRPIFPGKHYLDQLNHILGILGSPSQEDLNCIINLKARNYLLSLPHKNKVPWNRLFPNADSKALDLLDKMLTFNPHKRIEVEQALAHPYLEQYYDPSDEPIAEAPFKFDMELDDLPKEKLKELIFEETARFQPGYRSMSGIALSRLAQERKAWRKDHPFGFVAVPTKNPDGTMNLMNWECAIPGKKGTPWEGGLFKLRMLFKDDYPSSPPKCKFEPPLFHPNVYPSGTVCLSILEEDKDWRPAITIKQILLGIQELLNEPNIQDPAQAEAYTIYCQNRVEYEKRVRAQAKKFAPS

JUN-U = molecular target: T3, JUN-U (Homo sapiens, UniProt P05412+P63279); experiment: Trans-SUMOylation by JUN-U; details: protein 2 construct coexpressed with JUN-U and EGFP-SUMO1 in HEK293; western blot; Table 2
T3 construct: expressed in transfected cells; host or cells: HEK293
T3 sequence (P05412+P63279 fused): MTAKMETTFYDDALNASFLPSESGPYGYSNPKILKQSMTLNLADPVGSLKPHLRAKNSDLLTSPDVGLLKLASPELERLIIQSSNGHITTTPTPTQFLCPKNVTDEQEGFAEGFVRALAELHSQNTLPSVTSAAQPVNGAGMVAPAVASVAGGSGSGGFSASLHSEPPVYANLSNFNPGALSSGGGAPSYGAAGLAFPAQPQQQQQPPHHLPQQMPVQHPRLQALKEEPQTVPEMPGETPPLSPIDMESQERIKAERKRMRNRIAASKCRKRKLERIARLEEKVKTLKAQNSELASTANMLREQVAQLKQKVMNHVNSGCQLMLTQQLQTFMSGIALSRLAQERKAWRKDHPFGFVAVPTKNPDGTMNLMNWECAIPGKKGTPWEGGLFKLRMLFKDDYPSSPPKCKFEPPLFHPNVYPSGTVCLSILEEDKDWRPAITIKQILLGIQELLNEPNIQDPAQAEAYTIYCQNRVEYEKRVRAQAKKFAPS

U-p38α = molecular target: T4, U-p38α (Homo sapiens, UniProt P63279+Q16539); experiment: Trans-SUMOylation by U-p38α; details: protein 2 construct coexpressed with U-p38α and EGFP-SUMO1 in HEK293; western blot; Table 1
T4 construct: expressed in transfected cells; host or cells: HEK293
T4 sequence (P63279+Q16539 fused): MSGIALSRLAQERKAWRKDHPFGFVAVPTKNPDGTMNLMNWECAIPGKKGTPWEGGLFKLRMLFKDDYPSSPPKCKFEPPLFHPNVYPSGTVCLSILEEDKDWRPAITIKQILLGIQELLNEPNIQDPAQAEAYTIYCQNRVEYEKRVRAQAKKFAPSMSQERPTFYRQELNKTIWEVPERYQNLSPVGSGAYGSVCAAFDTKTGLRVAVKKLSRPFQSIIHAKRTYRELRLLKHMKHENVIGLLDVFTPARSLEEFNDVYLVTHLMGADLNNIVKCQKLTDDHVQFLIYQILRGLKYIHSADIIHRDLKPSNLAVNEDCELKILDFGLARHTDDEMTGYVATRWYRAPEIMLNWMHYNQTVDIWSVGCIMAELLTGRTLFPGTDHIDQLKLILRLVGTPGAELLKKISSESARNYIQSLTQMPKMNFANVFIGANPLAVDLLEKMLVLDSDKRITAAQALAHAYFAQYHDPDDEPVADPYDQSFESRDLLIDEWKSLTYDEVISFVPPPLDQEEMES

MK2-U = molecular target: T5, MK2-U (Homo sapiens, UniProt P49137+P63279); experiment: Trans-SUMOylation by MK2-U; details: protein 2 construct coexpressed with MK2-U and EGFP-SUMO1 in HEK293; western blot; Table 2
T5 construct: expressed in transfected cells; host or cells: HEK293
T5 sequence (P49137+P63279 fused): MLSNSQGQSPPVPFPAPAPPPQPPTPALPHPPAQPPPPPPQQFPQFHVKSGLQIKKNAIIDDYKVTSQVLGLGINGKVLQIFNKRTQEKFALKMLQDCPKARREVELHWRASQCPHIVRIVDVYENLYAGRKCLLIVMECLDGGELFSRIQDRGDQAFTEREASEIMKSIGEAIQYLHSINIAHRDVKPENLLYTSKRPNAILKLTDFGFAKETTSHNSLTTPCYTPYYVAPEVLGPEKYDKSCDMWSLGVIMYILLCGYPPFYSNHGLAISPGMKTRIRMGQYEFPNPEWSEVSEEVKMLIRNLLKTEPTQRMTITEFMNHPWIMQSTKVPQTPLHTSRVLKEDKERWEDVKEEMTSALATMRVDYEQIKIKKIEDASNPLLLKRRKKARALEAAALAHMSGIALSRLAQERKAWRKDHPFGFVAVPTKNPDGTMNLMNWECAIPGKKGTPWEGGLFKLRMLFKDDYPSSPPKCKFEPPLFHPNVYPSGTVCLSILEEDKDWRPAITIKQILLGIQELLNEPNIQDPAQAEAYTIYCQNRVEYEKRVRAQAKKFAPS

U-ERK2 = molecular target: T6, U-ERK2 (Homo sapiens, UniProt P28482+P63279); experiment: Trans-SUMOylation by U-ERK2; details: protein 2 construct coexpressed with U-ERK2 and EGFP-SUMO1 in HEK293; western blot; Table 2
T6 construct: expressed in transfected cells; host or cells: HEK293
T6 sequence (P63279+P28482 fused): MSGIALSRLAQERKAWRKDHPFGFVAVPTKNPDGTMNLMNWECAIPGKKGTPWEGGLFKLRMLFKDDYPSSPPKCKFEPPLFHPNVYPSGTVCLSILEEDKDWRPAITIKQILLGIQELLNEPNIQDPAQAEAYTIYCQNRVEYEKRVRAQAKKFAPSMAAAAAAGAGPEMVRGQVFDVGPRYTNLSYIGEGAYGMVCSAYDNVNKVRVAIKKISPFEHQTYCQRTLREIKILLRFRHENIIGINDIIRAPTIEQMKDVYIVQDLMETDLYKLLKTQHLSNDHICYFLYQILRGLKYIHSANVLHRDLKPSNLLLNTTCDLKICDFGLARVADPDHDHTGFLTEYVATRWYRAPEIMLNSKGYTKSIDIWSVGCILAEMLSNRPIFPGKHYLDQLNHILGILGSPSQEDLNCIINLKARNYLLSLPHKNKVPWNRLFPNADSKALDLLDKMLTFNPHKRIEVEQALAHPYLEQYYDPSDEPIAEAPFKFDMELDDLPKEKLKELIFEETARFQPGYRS

U-CSNK2B = molecular target: T7, U-CSNK2B (Homo sapiens, UniProt P63279+P67870); experiment: Trans-SUMOylation by U-CSNK2B; parameters: key: (++), strong TransSUMOylation; (+), TransSUMOylation; (+/−) weak TransSUMOylation; (−) no detectable TransSUMOylation; details: protein 2 construct coexpressed with U-CSNK2B and EGFP-SUMO1 in HEK293; western blot; Table 2
T7 construct: expressed in transfected cells; host or cells: HEK293
T7 sequence (P63279+P67870 fused): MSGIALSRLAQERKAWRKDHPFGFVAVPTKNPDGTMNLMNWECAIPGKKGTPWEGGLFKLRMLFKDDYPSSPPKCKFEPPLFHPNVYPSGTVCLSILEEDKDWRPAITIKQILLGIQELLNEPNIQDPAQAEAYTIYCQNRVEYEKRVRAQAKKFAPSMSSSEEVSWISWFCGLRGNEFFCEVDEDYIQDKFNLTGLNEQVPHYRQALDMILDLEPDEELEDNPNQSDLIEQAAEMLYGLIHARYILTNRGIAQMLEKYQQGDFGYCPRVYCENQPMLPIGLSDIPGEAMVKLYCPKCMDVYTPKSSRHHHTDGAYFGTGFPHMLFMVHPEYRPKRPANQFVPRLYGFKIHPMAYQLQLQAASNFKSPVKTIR
Excerpt: (§1) To identify new SUMOylation substrates and to study the function of SUMOylation the Ubc9/substrate dimerisation-dependent SUMOylation system (USDDS) was developed which consists of fusions of the SUMOylation substrate and of the SUMO-conjugating enzyme Ubc9 to the chemically activatable heterodimerisation domains FKBP and FRB, respectively, as shown in FIG. 2. When the substrate protein fused to FKBP is coexpressed with Ubc9-FRB, treatment of HEK293 cells with the rapamycin-related dimerizer AP21967 induces SUMOylation of the substrate protein fused to FKBP at its specific SUMOylation site. […] Dependent on an EcoRl site in the coding sequence, seven C-terminal amino acids of the human STAT1a in the STAT1-FKBP/FRB fusion proteins are missing. For the SUMOylation analysis HEK293 (human embryonic kidney cells) cells have been used. HEK293 cells were cultured in Dulbecco's modified Eagle's medium with high glucose, complemented with 10% fetal calf serum, 2 mM L-glutamine, 100 U/ml penicillin and […] streptomycin. […]
(§2) As shown above, the SUMOylation of a protein of interest can be induced by the heterodimerisation with a binding protein fused to Ubc9. […] Therefore the protein pairs were coexpressed with EGFP-SUMO1 in HEK293 cells and after 24h the transfectants were lysed and the protein extracts were analyzed in western blots. […]

U-MK5 = molecular target: T8, U-MK5 (Homo sapiens, UniProt P63279+Q8IW41); experiment: Trans-SUMOylation by U-MK5; parameters: key: (++), strong TransSUMOylation; (+), TransSUMOylation; (+/−) weak TransSUMOylation; (−) no detectable TransSUMOylation; details: protein 2 construct coexpressed with U-MK5 and EGFP-SUMO1 in HEK293; western blot; Table 2
T8 construct: expressed in transfected cells; host or cells: HEK293
T8 sequence (P63279+Q8IW41 fused): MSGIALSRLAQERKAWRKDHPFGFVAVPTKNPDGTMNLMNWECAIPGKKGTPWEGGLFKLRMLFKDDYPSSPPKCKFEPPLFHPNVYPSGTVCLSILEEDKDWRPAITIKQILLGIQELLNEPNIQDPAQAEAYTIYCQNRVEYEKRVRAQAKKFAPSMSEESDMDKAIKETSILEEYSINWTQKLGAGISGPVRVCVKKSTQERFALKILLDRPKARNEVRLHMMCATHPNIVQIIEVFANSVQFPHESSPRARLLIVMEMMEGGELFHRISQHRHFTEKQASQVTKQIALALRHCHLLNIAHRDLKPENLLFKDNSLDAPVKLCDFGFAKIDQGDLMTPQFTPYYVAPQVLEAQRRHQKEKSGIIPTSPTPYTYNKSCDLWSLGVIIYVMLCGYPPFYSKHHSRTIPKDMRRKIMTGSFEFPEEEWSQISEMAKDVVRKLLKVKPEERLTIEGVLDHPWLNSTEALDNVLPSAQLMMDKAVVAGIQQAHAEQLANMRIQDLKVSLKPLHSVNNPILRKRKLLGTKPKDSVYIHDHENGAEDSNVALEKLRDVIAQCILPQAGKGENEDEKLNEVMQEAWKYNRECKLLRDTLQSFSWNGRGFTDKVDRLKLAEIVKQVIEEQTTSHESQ
Excerpt: as §1, §2

U-HSF2BP = molecular target: T9, U-HSF2BP (Homo sapiens, UniProt O75031+P63279); experiment: Trans-SUMOylation by U-HSF2BP; parameters: key: (++), strong TransSUMOylation; (+), TransSUMOylation; (+/−) weak TransSUMOylation; (−) no detectable TransSUMOylation; details: protein 2 construct coexpressed with U-HSF2BP and EGFP-SUMO1 in HEK293; western blot; Table 2
T9 construct: expressed in transfected cells; host or cells: HEK293
Excerpt: as §1, §2

U-HDGF = molecular target: T10, U-HDGF (Homo sapiens, UniProt P51858+P63279); experiment: Trans-SUMOylation by U-HDGF; parameters: key: (++), strong TransSUMOylation; (+), TransSUMOylation; (+/−) weak TransSUMOylation; (−) no detectable TransSUMOylation; details: protein 2 construct coexpressed with U-HDGF and EGFP-SUMO1 in HEK293; western blot; Table 2
T10 construct: Ubc9 (fusion partner); expressed in transfected cells; host or cells: HEK293
T10 sequence (P63279+P51858 fused): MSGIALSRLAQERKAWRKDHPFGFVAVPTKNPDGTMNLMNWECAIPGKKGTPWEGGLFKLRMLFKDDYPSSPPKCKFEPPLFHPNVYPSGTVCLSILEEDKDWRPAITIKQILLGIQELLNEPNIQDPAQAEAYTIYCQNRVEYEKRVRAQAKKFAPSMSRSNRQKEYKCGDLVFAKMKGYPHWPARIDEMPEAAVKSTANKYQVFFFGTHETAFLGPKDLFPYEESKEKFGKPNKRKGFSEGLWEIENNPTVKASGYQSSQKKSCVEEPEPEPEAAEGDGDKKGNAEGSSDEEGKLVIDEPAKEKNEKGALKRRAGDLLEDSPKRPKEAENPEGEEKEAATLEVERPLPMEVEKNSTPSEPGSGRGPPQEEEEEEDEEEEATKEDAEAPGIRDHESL
Excerpt: as §1, §2

Trans-SUMOylation (U-MK2): −
Trans-SUMOylation (ERK2-U): (+/−)
Trans-SUMOylation (JUN-U): −
Trans-SUMOylation (U-p38α): +
Trans-SUMOylation (MK2-U): −
Trans-SUMOylation (U-ERK2): −
Trans-SUMOylation (U-CSNK2B): −
Trans-SUMOylation (U-MK5): (+/−)
B1: HA-MK5: MK5 fused to HA tag (protein)
chain: MSEESDMDKAIKETSILEEYSINWTQKLGAGISGPVRVCVKKSTQERFALKILLDRPKARNEVRLHMMCATHPNIVQIIEVFANSVQFPHESSPRARLLIVMEMMEGGELFHRISQHRHFTEKQASQVTKQIALALRHCHLLNIAHRDLKPENLLFKDNSLDAPVKLCDFGFAKIDQGDLMTPQFTPYYVAPQVLEAQRRHQKEKSGIIPTSPTPYTYNKSCDLWSLGVIIYVMLCGYPPFYSKHHSRTIPKDMRRKIMTGSFEFPEEEWSQISEMAKDVVRKLLKVKPEERLTIEGVLDHPWLNSTEALDNVLPSAQLMMDKAVVAGIQQAHAEQLANMRIQDLKVSLKPLHSVNNPILRKRKLLGTKPKDSVYIHDHENGAEDSNVALEKLRDVIAQCILPQAGKGENEDEKLNEVMQEAWKYNRECKLLRDTLQSFSWNGRGFTDKVDRLKLAEIVKQVIEEQTTSHESQ
modifications: left off: small tags and cut ends
notes: MK5 fused to HA tag

Trans-SUMOylation (U-HSF2BP): +
Trans-SUMOylation (U-HDGF): −
B2: GST-HSF2BP: HSF2BP fused to GST tag (protein, UniProt O75031 1-334, looked up)
Heat shock factor 2-binding …: MGEAGAAEEACRHMGTKEEFVKVRKKDLERLTTEVMQIRDFLPRILNGEVLESFQKLKIVEKNLERKEQELEQLKMDCEHFKARLETVQADNIREKKEKLALRQQLNEAKQQLLQQAEYCTEMGAAACTLLWGVSSSEEVVKAILGGDKALKFFSITGQTMESFVKSLDGDVQELDSDESQFVFALAGIVTNVAAIACGREFLVNSSRVLLDTILQLLGDLKPGQCTKLKVLMLMSLYNVSINLKGLKYISESPGFIPLLWWLLSDPDAEVCLHVLRLVQSVVLEPEVFSKSASEFRSSLPLQRILAMSKSRNPRLQTAAQELLEDLRTLEHNV
modifications: GST tag
